This experiment has as its target TEAD (residue 28-104) of TEAD1 (UniProt P28347 28-104). The experiment in a line: fluorescence polarisation.

The values below come from paper PMC11880201 (Nature Communications, 2025).

By Kd is commonly meant a measure of binding affinity in units of concentration. Read a low Kd as a tighter complex.

Chain of TEAD (residue 28-104) of TEAD1 (P28347 28-104): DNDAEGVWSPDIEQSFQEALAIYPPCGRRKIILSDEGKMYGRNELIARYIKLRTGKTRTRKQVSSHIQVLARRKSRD

B1: FITC-labeled INSM1 ZF1 (domain or fragment)
chain: not shown
modifications: FITC label (FITC rapid labeling kit), site not stated
As to B1, binding was put at a Kd of 39.5 nM.
